These are literature values, as cited in article PMC3403913.

In this series the target is factor Va (Homo sapiens) (UniProt P12259).
Chain of UniProt P12259 (P12259 29-737, chain 1 of 2): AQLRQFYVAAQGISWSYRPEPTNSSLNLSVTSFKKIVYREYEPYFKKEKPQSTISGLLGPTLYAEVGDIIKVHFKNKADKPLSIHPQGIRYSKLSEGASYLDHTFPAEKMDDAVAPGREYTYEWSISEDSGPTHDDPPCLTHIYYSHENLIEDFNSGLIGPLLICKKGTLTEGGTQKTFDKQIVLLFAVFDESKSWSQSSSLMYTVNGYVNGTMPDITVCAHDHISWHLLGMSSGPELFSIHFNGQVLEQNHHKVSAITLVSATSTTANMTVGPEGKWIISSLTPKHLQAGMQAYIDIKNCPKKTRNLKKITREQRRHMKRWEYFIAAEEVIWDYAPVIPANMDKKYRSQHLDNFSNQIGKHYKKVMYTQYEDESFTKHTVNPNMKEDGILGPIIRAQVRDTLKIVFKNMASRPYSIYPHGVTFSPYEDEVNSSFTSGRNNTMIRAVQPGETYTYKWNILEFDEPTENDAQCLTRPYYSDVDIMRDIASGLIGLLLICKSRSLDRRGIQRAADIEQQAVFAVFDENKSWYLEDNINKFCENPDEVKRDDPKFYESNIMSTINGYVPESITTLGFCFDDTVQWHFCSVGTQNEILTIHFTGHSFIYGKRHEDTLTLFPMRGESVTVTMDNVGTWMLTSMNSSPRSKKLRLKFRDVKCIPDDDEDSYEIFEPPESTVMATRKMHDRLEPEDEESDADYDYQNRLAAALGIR
Chain of UniProt P12259 (P12259 1574-2224, chain 2 of 2): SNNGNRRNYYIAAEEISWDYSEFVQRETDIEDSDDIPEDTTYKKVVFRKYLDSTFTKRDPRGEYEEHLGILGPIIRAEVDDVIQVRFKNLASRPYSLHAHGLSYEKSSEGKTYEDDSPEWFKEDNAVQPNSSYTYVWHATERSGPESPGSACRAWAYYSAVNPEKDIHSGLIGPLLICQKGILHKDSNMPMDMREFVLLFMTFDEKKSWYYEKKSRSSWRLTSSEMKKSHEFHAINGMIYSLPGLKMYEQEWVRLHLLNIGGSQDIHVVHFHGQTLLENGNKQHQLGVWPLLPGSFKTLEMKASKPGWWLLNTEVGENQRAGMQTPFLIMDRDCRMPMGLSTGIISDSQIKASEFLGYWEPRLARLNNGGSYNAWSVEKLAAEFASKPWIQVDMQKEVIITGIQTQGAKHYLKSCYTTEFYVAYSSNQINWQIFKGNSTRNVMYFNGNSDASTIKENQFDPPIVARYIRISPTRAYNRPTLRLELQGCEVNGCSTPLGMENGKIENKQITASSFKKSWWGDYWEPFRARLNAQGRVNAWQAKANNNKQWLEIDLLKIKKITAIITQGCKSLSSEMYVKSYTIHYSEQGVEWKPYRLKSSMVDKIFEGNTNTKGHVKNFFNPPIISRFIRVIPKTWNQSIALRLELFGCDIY

In the case of factor Xa (from UniProt P00742), the Kd is 0.5 nM.
